Laboratory results reported in article PMC5701296, “α-Synuclein-Dependent Calcium Entry Underlies Differential Sensitivity of Cultured SN and VTA Dopaminergic Neurons to a Parkinsonian Neurotoxin” (eNeuro, 2017).

Substrate: CN(C)c1ccc(-c2cc[n+](C)cc2)cc1
Assay: concentration-dependent fluorescent uptake, Lineweaver-Burk; blocked by nomifensine
Format: cell-based, Mus musculus

B1: DA uptake transporter (DAT) (Mus musculus) (protein)
chain: MSKSKCSVGPMSSVVAPAKEPNAVGPREVELILVKEQNGVQLTNSTLINPPQTPVEVQERETWSKKIDFLLSVIGFAVDLANVWRFPYLCYKNGGGAFLVPYLLFMVIAGMPLFYMELALGQFNREGAAGVWKICPVLKGVGFTVILISFYVGFFYNVIIAWALHYFFSSFTMDLPWIHCNNTWNSPNCSDAHSSNSSDGLGLNDTFGTTPAAEYFERGVLHLHQSRGIDDLGPPRWQLTACLVLVIVLLYFSLWKGVKTSGKVVWITATMPYVVLTALLLRGVTLPGAMDGIRAYLSVDFYRLCEASVWIDAATQVCFSLGVGFGVLIAFSSYNKFTNNCYRDAIITTSINSLTSFSSGFVVFSFLGYMAQKHNVPIRDVATDGPGLIFIIYPEAIATLPLSSAWAAVFFLMLLTLGIDSAMGGMESVITGLVDEFQLLHRHRELFTLGIVLATFLLSLFCVTNGGIYVFTLLDHFAAGTSILFGVLIEAIGVAWFYGVQQFSDDIKQMTGQRPNLYWRLCWKLVSPCFLLYVVVVSIVTFRPPHYGAYIFPDWANALGWIIATSSMAMVPIYATYKFCSLPGSFREKLAYAITPEKDRQLVDRGEVRQFTLRHWLLV
notes: native transporter in cultured primary mouse SN and VTA dopaminergic neurons
For B1, the Km was 16.9 ± 5.5 µM.
